The values below come from patent US20040235717.

Data set [1] addresses mtAR S790A (UniProt P10275).
Data set [2] concerns the target mtAR S210A (UniProt P10275).

Sequence of mtAR S210A (P10275 whole entry, looked up, stated change not applied): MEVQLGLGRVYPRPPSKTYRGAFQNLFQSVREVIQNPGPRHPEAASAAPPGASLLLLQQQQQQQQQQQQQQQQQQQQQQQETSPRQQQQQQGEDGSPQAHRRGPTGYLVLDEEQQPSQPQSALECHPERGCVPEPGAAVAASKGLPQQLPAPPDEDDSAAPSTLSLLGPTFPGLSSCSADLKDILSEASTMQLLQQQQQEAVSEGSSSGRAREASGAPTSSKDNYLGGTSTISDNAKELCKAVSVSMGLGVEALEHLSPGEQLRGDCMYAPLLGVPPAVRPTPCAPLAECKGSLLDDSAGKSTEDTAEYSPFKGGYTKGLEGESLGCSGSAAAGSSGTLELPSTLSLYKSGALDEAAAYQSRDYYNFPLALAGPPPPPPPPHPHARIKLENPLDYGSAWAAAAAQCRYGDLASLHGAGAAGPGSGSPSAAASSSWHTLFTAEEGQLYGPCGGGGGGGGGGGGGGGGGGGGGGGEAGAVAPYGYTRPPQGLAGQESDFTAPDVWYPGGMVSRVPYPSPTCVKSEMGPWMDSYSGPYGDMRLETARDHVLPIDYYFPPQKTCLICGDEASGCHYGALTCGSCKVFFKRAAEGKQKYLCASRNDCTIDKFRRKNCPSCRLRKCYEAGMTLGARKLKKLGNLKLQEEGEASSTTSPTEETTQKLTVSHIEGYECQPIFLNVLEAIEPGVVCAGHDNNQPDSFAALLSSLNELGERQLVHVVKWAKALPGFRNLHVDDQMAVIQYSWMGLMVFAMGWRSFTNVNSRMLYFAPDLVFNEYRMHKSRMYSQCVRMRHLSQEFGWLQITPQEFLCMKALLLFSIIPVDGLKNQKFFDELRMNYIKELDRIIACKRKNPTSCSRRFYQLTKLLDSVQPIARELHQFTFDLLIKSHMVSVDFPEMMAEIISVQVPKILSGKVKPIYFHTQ
Sequence of mtAR S790A (P10275 whole entry, looked up, stated change not applied): as above

As to Akt/PKB (endogenous, LNCaP cells), in data set [1], the “in vitro phosphorylation of immunoprecipitated AR by Akt” value is “the degree of Akt phosphorylation of mtARS210A and mtARS790A, as compared to wtAR, was reduced significantly”; the “in vitro phosphorylation of immunoprecipitated AR by Akt/PKB” value is “the degree of phosphorylation of ARS210A and ARS790A by Akt/PKB, as compared to wtAR, was reduced significantly”. Moreover, in data set [2], the “in vitro phosphorylation of immunoprecipitated AR by Akt” value was “the degree of Akt phosphorylation of mtARS210A and mtARS790A, as compared to wtAR, was reduced significantly”; the “in vitro phosphorylation of immunoprecipitated AR by Akt/PKB” value is “the degree of phosphorylation of ARS210A and ARS790A by Akt/PKB, as compared to wtAR, was reduced significantly”.
